In IntAct's records for PubMed 24291789:

B1: Cohesin subunit psc3 (Schizosaccharomyces pombe (strain ATCC 38366 / 972)), O13816 (parent)
chain: MSESVTTGSDDDGGDRESSPVMLSQSFDPMSSSSNSSSEENSDDDYEKTISSKKRHPRPNSKGVNVKRSRRNAIVEEDPQEEIFNNLFAFLLDQKVDTMDIAVSWFADYAKDNQSALANLINFILKCCGCNRAINVFDVQDQDSASATLSQIQLSVERTSTRDYPLNSKNLKFRNFRKRLTGLLSNFVSQLSIRNYLYNSTVFEDIMSWVVAMSSSTMRPIRHTATVFCLNIMTFLCEKSKELLNEHAIATKQLEKEEKRSRVNRNRINELNNSLGEIVKQQDTLTTYLNDYFDSVFVHRYRDVEPKIRVDCLQELGVWINTVPSIFFSGSYLRYLGWMLSDINTTVRLTVVKVLRKFFETDSFIGGLRHFSSRFKERILEMSCVDADIGVRVASIRLCNAMRTCGFLENSEILKVLKLILDINPRVQREAVLFLCKVVDESVNEKIDLWGEEDYILKAFSQTSLTTFSVHWIKFSQMCKLLEEVRLSYQSSFDYDTLLRIFQKNGNFITPITQALLNACEIDSIYQSWEDISNFVLFDNYTSTLKDPIDSILSFCKLNDFQESILLQLLSASIQTVCNNNFITPKTVHNKQAAETTNDQNKDKDLLYLNLLPYINSITERNSASPTLLHDSLRLLFSMDLTEMTDPQLSRHFELLINNLKKFFLTNNDLQIIQGCTILFLRLDSIPALKEDLKLLVTDICDQTVTEFLKNFGSFNIQDAVITKDEFVIFEACLTRIEGCTSLKDFSDYPEFDIIYERLVSLLSRVPNSYEDTLKFSAINTLQSLLFWFFLRKDNPADEEKKKDDETKVFNCLINIMNNDSSKILQLQAARTFLETVIMKEGVKASHYNDDNRVSEEHNFLKPQFLDALLKILEGWLYTYAKVGQFPFKRLTQASSPHTQISLDKNPLNRRLLEHVCCDLTSKLLIVVSLSNTITPEFSQQFCELRGHYGPKLSAIVDEFLN

Variants of: B1
Conditions: with mis4_schpo mis4, Q09725
mis4_schpo mis4, Q09725, sequence (Q09725 whole entry): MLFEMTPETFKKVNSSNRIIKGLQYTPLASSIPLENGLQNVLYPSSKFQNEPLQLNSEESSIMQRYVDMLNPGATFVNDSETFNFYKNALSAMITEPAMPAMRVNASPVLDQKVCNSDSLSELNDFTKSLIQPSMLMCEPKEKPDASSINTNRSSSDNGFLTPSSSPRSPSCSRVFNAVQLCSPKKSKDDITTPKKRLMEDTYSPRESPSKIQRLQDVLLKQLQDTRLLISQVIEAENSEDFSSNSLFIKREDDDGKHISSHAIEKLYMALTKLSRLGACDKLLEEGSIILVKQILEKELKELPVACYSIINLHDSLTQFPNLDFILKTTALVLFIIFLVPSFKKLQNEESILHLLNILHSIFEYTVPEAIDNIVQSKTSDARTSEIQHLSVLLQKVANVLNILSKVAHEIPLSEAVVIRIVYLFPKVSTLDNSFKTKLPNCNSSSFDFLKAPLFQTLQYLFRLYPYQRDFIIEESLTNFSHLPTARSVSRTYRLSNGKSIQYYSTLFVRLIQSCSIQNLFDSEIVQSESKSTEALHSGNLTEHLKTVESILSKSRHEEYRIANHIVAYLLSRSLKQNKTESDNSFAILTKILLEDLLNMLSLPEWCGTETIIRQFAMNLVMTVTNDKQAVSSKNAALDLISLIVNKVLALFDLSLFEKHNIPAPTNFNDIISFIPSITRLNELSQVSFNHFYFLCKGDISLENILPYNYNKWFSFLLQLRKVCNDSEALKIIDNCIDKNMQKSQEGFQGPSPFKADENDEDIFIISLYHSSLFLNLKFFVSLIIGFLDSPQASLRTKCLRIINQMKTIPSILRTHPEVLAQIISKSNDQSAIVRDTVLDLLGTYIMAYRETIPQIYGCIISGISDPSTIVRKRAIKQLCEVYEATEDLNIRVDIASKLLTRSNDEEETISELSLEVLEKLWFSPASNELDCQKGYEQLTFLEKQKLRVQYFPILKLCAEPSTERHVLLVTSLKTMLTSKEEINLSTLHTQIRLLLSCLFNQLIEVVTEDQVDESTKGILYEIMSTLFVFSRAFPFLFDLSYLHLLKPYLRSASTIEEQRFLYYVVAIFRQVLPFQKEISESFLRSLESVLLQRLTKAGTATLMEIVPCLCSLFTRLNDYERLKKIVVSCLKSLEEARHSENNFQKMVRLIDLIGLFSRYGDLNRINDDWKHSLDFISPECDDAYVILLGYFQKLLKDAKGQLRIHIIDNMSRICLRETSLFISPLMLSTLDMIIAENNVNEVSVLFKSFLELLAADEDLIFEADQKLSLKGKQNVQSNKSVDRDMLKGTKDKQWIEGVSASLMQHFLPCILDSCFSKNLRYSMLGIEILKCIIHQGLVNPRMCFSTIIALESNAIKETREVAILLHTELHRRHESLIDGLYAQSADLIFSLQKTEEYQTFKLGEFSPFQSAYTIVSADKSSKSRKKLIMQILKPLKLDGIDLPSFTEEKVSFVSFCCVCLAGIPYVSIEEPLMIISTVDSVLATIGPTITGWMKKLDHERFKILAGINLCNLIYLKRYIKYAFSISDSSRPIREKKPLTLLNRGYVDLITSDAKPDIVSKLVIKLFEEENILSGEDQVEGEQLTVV

Variant | effect of a mutation on the interaction
P306L | decreasing interaction strength
R300G | decreasing interaction strength
